B1: TFE3 (parent)
chain: FHLGLEDILMEEEEGVVGGLSGGA

Variants of: B1
Experiment: protein stability index of a GFP-peptide fusion (GPS, HEK-293T) (PSI 1-6); higher = more stable
Conditions: c terminus: a fixed tail appended
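Note: lentivirally expressed fusions sorted by FACS into six bins by GFP to DsRed ratio, PSI derived from sequencing read proportions per bin multiplied by bin number.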

Protein stability index of substitutions, site by site:
S21: C 3.48 | L 3.01 | R 3.7 | I 3.27 | H 3.44 | A 3.9 | M 3.54 | K 3.48 | N 3.6 | E 4.65 | W 2.3 | G 4.07 | P 3.35 | Q 4.07 | V 3.81 | D 3.95 | T 3.54 | Y 2.77
A24: S 3.82 | W 1.75 | H 3.25 | R 3.86 | M 3.12 | E 3.9 | L 2.94 | Y 2.68 | I 2.66 | P 3.07 | N 3.65 | C 3.73
G18: P 3.85 | Q 4.23 | Y 3.23 | D 4.06 | I 3.35 | S 3.27 | V 3.93 | T 3.5 | W 3.06 | C 3.76 | L 3.3 | M 3.6 | H 3.66 | R 3.72 | E 4.1 | N 3.77
G22: R 3.39 | V 3.9 | H 3.8 | K 4.05 | F 3.34 | E 4.01 | Q 3.67 | T 4.26 | I 3.19 | D 3.5 | S 3.57 | A 3.81 | P 3.64 | Y 2.28 | C 3.3 | M 3.59
E11: C 2.6 | H 2.73 | S 2.95 | R 3.33 | Q 2.91 | T 2.97 | K 3.35 | G 2.61 | W 2.57 | F 2.09 | I 2.08 | P 2.7 | L 2.2 | V 2.67 | M 1.82
E14: F 1.78 | D 3.82 | K 3.34 | Q 2.98 | C 2.73 | L 2.67 | P 3.53 | H 2.54 | W 1.43 | R 3.55 | N 2.72 | M 2.27
G19: R 3.54 | I 2.87 | L 3.25 | F 2.69 | M 3.71 | T 3.48 | C 3.43 | V 3.22 | N 3.84 | A 3.97 | W 2.18 | D 4.69 | Q 4.09 | Y 2.67
L9: I 3.7 | Q 4.39 | V 4.11 | M 4.1 | G 4.43 | W 2.66 | R 4.5 | D 4 | H 4.08 | P 4.21 | A 4.22 | E 4.57 | K 4.17 | Y 3.87
G23: M 3.19 | C 3.21 | Q 3.89 | A 3.37 | W 2.15 | V 3.98 | T 3.56 | H 3.43 | R 3.29 | D 4.04 | P 4
G4: Q 3.54 | C 2.67 | R 2.5 | V 2.13 | N 3.48 | D 3.99 | Y 1.86 | A 2.97 | P 3.05 | M 2.5 | S 3.94 | K 2.23 | W 2.67 | H 2.94 | F 2.01
G15: D 4.19 | Q 4.23 | K 4.11 | A 4.1 | R 4.03 | F 2.42 | M 3.05 | Y 3.04 | I 2.9 | T 3.51 | C 3.24 | P 3.59 | V 3.64 | W 2.3
L5: I 3.7 | M 3.46 | P 3.59 | E 4.96 | G 4.52 | Q 4.46 | W 4.21 | D 4.38 | Y 3.21 | A 4.62 | R 4.04 | K 3.76 | T 4.23 | H 3.91 | S 4.37
H2: N 4.84 | G 4.41 | W 2.94 | L 3.46 | V 2.75 | P 4.26 | E 3.95 | R 4.16 | K 4.38 | F 3.15 | S 4.27 | T 4.23
E12: N 3.01 | M 2.29 | C 2.83 | A 2.6 | K 3.2 | T 3.72 | P 2.43 | D 3.77 | H 3.09 | Y 2.63 | R 2.47 | G 3.02
I8: A 4.33 | M 3.58 | C 4.03 | S 4.28 | N 4.25 | F 3.17 | R 3.93 | K 4.31 | D 4.59 | W 3.24 | P 4.89 | Q 4.28 | T 3.88 | H 4.01 | L 3.78
L20: R 3.99 | I 4.08 | C 3.91 | P 3.79 | A 4.74 | H 4.24 | G 3.98 | F 4.09 | K 4.55 | M 3.19 | T 4.11 | Q 4.47 | S 4.52 | E 4.99
D7: P 3.5 | K 2.77 | H 2.88 | E 3.56 | F 2.28 | Q 3.19 | S 3.31 | I 2.25 | T 3 | G 3.54 | Y 1.57 | A 2.34 | L 2.16 | C 2.34
M10: L 3.44 | I 3.81 | R 3.23 | W 3.57 | Y 3.62 | Q 4.34 | T 3.88 | C 3.83 | F 3.83 | V 3.83 | P 4.18 | K 3.94
E6: S 2.82 | Q 3.31 | M 1.93 | F 2.33 | R 3.3 | I 1.88 | C 2.55 | W 2.02 | Y 2.31 | H 2.86 | T 3.04 | A 2.67 | D 3.58 | L 3.26
V16: M 3.58 | I 4.12 | S 3.82 | D 4.07 | N 3.68 | R 3.52 | Q 4.29 | P 3.08 | F 2.83 | T 4
V17: R 3.8 | P 3.63 | D 4.44 | M 3.46 | W 2.72 | N 4.76 | S 4.13 | T 3.95 | G 3.15 | I 3.92 | Q 3.69 | C 4.01 | Y 3.03 | H 3.7
F1: R 4.44 | V 4.56 | A 5.2 | T 4.02 | K 5.06 | L 4.36 | N 5.56 | W 4.09 | C 4.89 | D 5.21 | Q 5.15 | S 4.96
L3: W 2.45 | K 4.49 | T 4.5 | E 5.06 | G 3.44 | P 4.44 | H 4.32 | M 3.92 | F 3.92 | N 4.17 | Q 4.22 | D 5.27 | Y 3.56 | S 3.5 | I 4.07 | C 2.34
E13: R 3.1 | D 3.3 | C 2.16 | Q 3.4 | S 3.34 | L 2.37 | A 2.83 | Y 2.11 | M 2.15 | N 3.55 | I 1.88 | K 3.41 | V 2.46 | F 1.84 | W 2.18 | T 3.34 | P 2.41

Reference: the supplement of paper PMC10567573
